# Laboratory results from PMC6540902, “A simple, robust, universal assay for real-time enzyme monitoring by signalling changes in nucleoside phosphate anion concentration using a europium(III)-based anion receptor” (Chemical Science, 2019).
# Substrate: CC(C)C[C@H](NC(=O)[C@H](CO)NC(=O)[C@H](C)NC(=O)[C@H](CCCNC(=N)N)NC(=O)[C@H](CCCNC(=N)N)NC(=O)[C@@H](N)CC(C)C)C(=O)NCC(=O)O
# Assay: Michaelis-Menten substrate titration (Km) by real-time Eu(III) luminescence
# Format: biochemical, Homo sapiens
# Conditions: ATP, Mg2+
protein,measurement,value
Aurora A kinase (AurA) (Homo sapiens) (protein) MDRSKENCISGPVKATAPVGGPKRVLVTQQFPCQNPLPVNSGQAQRVLCPSNSSQRIPLQAQKLVSSHKPVQNQKQKQLQATSVPHPVSRPLNNTQKSKQPLPSAPENNPEEELASKQKNEESKKRQWALEDFEIGRPLGKGKFGNVYLAREKQSKFILALKVLFKAQLEKAGVEHQLRREVEIQSHLRHPNILRLYGYFHDATRVYLILEYAPLGTVYRELQKLSKFDEQRTATYITELANALSYCHSKRVIHRDIKPENLLLGSAGELKIADFGWSVHAPSSRRTTLCGTLDYLPPEMIEGRMHDEKVDLWSLGVLCYEFLVGKPPFEANTYQETYKRISRVEFTFPDFVTEGARDLISRLLKHNPSQRPMLREVLEHPWITANSSKPSNCQNKESASKQS,Km,176 ± 29 µM
